Source: patent US20240376151A1, “STAPLED PEPTIDES AND METHODS THEREOF” (FOG PHARMACEUTICALS, INC., priority 2022, published 2024)

Target: T1, RNF31 PUB domain (Homo sapiens, UniProt Q96EP0)
T1 construct: MBP-TEV (N, cleaved yes); made in house; host or cells: E. coli BL21 (DE3) pLysS
T1 sequence (Q96EP0 1-179): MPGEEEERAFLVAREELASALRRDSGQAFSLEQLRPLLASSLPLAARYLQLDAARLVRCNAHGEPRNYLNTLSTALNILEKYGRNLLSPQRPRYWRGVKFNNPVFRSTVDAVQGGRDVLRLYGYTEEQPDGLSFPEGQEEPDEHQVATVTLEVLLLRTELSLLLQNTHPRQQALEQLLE
Assay: Phage Library Screening with NGS, RNF31 PUB domain
Assay type: binding
Details: for Phage library screen NGS readout, Target Concentration 10 / Phage library screen NGS readout, Target Concentration 30 / Phage library screen NGS readout, Target Concentration 100 / Phage library screen NGS readout, Target Concentration 300 / Phage library screen NGS readout, Target Concentration 1000: RNF31 PUB domain clusters C41-C45; for Phage library screen NGS readout, BLANK: clusters C41-C45

[1] = target concentration 1000, first column
[2] = target concentration 1000, second column

Sequence	Phage library screen NGS readout, Target Concentration 10	Phage library screen NGS readout, Target Concentration 30	Phage library screen NGS readout, Target Concentration 100	Phage library screen NGS readout, Target Concentration 300	Phage library screen NGS readout, Target Concentration 1000 [1]	Phage library screen NGS readout, Target Concentration 1000 [2]	Phage library screen NGS readout, BLANK (column 1 of 5)	Phage library screen NGS readout, BLANK (column 2 of 5)	Phage library screen NGS readout, BLANK (column 3 of 5)	Phage library screen NGS readout, BLANK (column 4 of 5)	Phage library screen NGS readout, BLANK (column 5 of 5)
DPAYDWCLYAAEYCHTD	0	0	0	1	7	4	0	0	1	0	0
DPAYDWCLYAAYQCDQN	0	0	0	6	13	40	0	0	0	0	0
DPAYDWCMYAAHECVDQ	0	0	0	3	3	8	0	0	0	1	0
DPAYDWCMYAAYNCVED	2	1	1	6	41	38	0	0	0	0	0
DPAYDYCLYAAQDCVWW	0	0	0	1	6	5	0	0	0	0	0
DPAYDYCLYAAYDCTQT	0	0	1	5	48	38	1	0	0	1	0
DPAYEDCADAAMYCDMD	0	0	0	0	11	10	1	0	0	0	0
DPAYEDCAWAALYCDMT	0	0	0	10	70	64	0	0	0	0	0
DPAYRDCDWAALYCDDF	0	0	1	2	12	12	0	3	0	0	1
DPAYSLCISAAVECTYY	0	1	0	2	6	7	0	0	0	0	0
DPAYSSCSWAAIYCNWT	1	1	5	2	7	4	1	1	4	2	1
DPAYTLCSWAAMYCDSM	0	1	0	0	5	6	0	1	1	4	2
DPAYWDCLYAAADCAFY	0	0	0	4	8	5	2	0	0	0	0
DPAYWDCLYAAWSCDIL	0	1	0	4	9	7	1	1	1	0	0
